The text below walks through data of patent US20230190922A1.

The assay has as its target human 4-1BB receptor (h4-1-BB) expressed on a genetically engineered Jurkat T cell line (4-1BB Bioassay, Promega) (human) (UniProt Q07011). As to the kind of experiment: cell-based or functional assay. Particulars: scale: relative luciferase expression.

human 4-1BB receptor (h4-1-BB) expressed on a genetically engineered Jurkat T cell line (4-1BB Bioassay, Promega) (human), sequence (Q07011 24-255, change not shown): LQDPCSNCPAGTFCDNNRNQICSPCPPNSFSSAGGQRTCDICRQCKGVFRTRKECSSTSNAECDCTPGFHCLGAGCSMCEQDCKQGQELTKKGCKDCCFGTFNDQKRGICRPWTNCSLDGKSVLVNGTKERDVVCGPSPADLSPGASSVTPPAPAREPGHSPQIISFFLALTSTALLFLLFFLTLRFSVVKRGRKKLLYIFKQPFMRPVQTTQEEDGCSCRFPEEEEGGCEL

“His-tagged h4-1BBL cross-linked with an Fc (from UniProt P41273 71-254) (ligand)” showed a luciferase expression by Jurkat-h4-1BB reporter cells (4-1BB Bioassay, Promega), reference value of 1.
